Reference: PMC8146696, “Live-Cell Analysis of Human Cytomegalovirus DNA Polymerase Holoenzyme Assembly by Resonance Energy Transfer Methods” (Microorganisms, 2021)

B2: HCMV DNA polymerase catalytic subunit pUL54, C-terminal domain UL54(1125–1242) (domain or fragment)
chain: VSRSDAIDGTDDDADGGGVEESNRRGGEPAKKRARKPPSAVCNYEVAEDPSYVREHGVPIHADKYFEQVLKAVTNVLSPVFPGGETARKDKFLHMVLPRRLHLEPAFLPYSVKAHECC
notes: also called CFP-UL54(1125–1242); RLuc-UL54; source: HEK293T, transiently transfected, in cells; not shown: CFP (FRET) or RLuc (BRET), N-terminal, kept
B3: HCMV DNA polymerase processivity factor ppUL44, UL44(2–433), wild type (natural protein)
chain: DRKTRLSEPPTLALRLKPYKTAIQQLRSVIRALKENTTVTFLPTPSLILQTVRSHCVSKITFNSSCLYITDKSFQPKTINNSTPLLGNFMYLTSSKDLTKFYVQDISDLSAKISMCAPDFNMEFSSACVHGQDIVRESENSAVHVDLDFGVVADLLKWIGPHTRVKRNVKKAPCPTGTVQILVHAGPPAIKFILTNGSELEFTANNRVSFHGVKNMRINVQLKNFYQTLLNCAVTKLPCTLRIVTEHDTLLYVASRNGLFAVENFLTEEPFQRGDPFDKNYVGNSGKSRGGGGGGGSLSSLANAGGLHDDGPGLDNDLMNEPMGLGGLGGGGGGGGKKHDRGGGGGSGTRKMSSGGGGGDHDHGLSSKEKYEQHKITSYLTSKGGSGGGGGGGGGGLDRNSGNYFNDAKEESDSEDSVTFEFVPNTKKQKCG
notes: also called YFP-UL44; CFP-UL44; source: HEK293T, transiently transfected, in cells; YFP-UL44 also stably expressed in HEK293A (lentiviral transduction, puromycin); RLuc-UL44 also stably expressed in HEK293A clone 1B2 (G418); not shown: YFP (acceptor copy) or CFP (FRET donor copy) or RLuc (BRET donor copy), N-terminal, kept
B4: ppUL44 UL44(2–433) I135A (natural protein)
chain: DRKTRLSEPPTLALRLKPYKTAIQQLRSVIRALKENTTVTFLPTPSLILQTVRSHCVSKITFNSSCLYITDKSFQPKTINNSTPLLGNFMYLTSSKDLTKFYVQDISDLSAKISMCAPDFNMEFSSACVHGQDAVRESENSAVHVDLDFGVVADLLKWIGPHTRVKRNVKKAPCPTGTVQILVHAGPPAIKFILTNGSELEFTANNRVSFHGVKNMRINVQLKNFYQTLLNCAVTKLPCTLRIVTEHDTLLYVASRNGLFAVENFLTEEPFQRGDPFDKNYVGNSGKSRGGGGGGGSLSSLANAGGLHDDGPGLDNDLMNEPMGLGGLGGGGGGGGKKHDRGGGGGSGTRKMSSGGGGGDHDHGLSSKEKYEQHKITSYLTSKGGSGGGGGGGGGGLDRNSGNYFNDAKEESDSEDSVTFEFVPNTKKQKCG
notes: source: HEK293T, transiently transfected, in cells; not shown: YFP (acceptor copy) or RLuc (BRET donor copy), N-terminal, kept
B5: ppUL44 UL44(2–433) L86A/L87A (natural protein)
chain: DRKTRLSEPPTLALRLKPYKTAIQQLRSVIRALKENTTVTFLPTPSLILQTVRSHCVSKITFNSSCLYITDKSFQPKTINNSTPAAGNFMYLTSSKDLTKFYVQDISDLSAKISMCAPDFNMEFSSACVHGQDIVRESENSAVHVDLDFGVVADLLKWIGPHTRVKRNVKKAPCPTGTVQILVHAGPPAIKFILTNGSELEFTANNRVSFHGVKNMRINVQLKNFYQTLLNCAVTKLPCTLRIVTEHDTLLYVASRNGLFAVENFLTEEPFQRGDPFDKNYVGNSGKSRGGGGGGGSLSSLANAGGLHDDGPGLDNDLMNEPMGLGGLGGGGGGGGKKHDRGGGGGSGTRKMSSGGGGGDHDHGLSSKEKYEQHKITSYLTSKGGSGGGGGGGGGGLDRNSGNYFNDAKEESDSEDSVTFEFVPNTKKQKCG
notes: source: HEK293T, transiently transfected, in cells; not shown: YFP (acceptor copy) or CFP (FRET donor copy) or RLuc (BRET donor copy), N-terminal, kept

Tests used:
[1] = molecular target: ppUL44 UL44(2–433) ΔNLS (K428V/K429A/K431) (human cytomegalovirus (HCMV)) (UniProt P16790); test: FRET or BRET; BRET saturation in living HEK293T cells; fixed RLuc donor plasmid, increasing YFP acceptor plasmid (0-500 ng); one-site hyperbola of BRET ratio against YFPnet/RLuc gives B50 (relative affinity)
[2] = molecular target: ppUL44 UL44(2–433) Δloop (R165G/K167N/K168G) (human cytomegalovirus (HCMV)) (UniProt P16790); test: as above
[3] = molecular target: pUL54 C-terminal 20 aa C-terminal 20 aa (Human cytomegalovirus) (UniProt P08546); conditions: cited from earlier work
[4] = molecular target: UL44Δ290 1-290 (Human cytomegalovirus) (UniProt P16790); test: gel filtration; conditions: cited from earlier work
[5] = molecular target: B2; test: FRET or BRET; BRET inhibition, system 1: HEK293T transiently expressing RLuc donor and YFP-UL44 acceptor at about 50% of BRETmax, with increasing amounts of pDESTnFLAG-UL44 or pDESTnFLAG-UL42; conditions: partners not purified
[6] = molecular target: B3; test: FRET or BRET; BRET saturation in living HEK293T cells; fixed RLuc donor plasmid, increasing YFP acceptor plasmid (0-500 ng); one-site hyperbola of BRET ratio against YFPnet/RLuc gives B50 (relative affinity); conditions: partners not purified
[7] = molecular target: B5; test: as above; conditions: partners not purified
ppUL44 UL44(2–433) I135A = molecular target: B4; test: as above; conditions: partners not purified
[8] = molecular target: the molecule itself; test: FRET or BRET; BRET at one donor/acceptor ratio in living HEK293T cells; RLuc fusion donor with or without YFP-UL44 acceptor, both transient; 48 h post transfection, cells in PBS, coelenterazine 5 uM
[9] = molecular target: the molecule itself; test: FRET or BRET; BRET saturation in living HEK293T cells; fixed RLuc donor plasmid, increasing YFP acceptor plasmid (0-500 ng); one-site hyperbola of BRET ratio against YFPnet/RLuc gives B50 (relative affinity)
[10] = molecular target: the molecule itself; test: FRET or BRET; BRET in monoclonal HEK293A lines (from clone 1B2) stably expressing both YFP-UL44 and RLuc-UL44

## ppUL44 UL44(2–433) ΔNLS (K428V/K429A/K431) (from UniProt P16790 2-433) (natural protein)
[1]
  B50: 11.2

## ppUL44 UL44(2–433) Δloop (R165G/K167N/K168G) (from UniProt P16790 2-433) (natural protein)
[2]
  B50: 12.6

## HCMV DNA polymerase catalytic subunit pUL54, C-terminal domain UL54(1125–1242) (from UniProt P08546 1125-1242) (domain or fragment)
[2]
  B50: 34.4
[1]
  B50: 15.1

## UL44Δ290 1-290 (from UniProt P16790)
[3]
  Kd: 700 nM
[4]
  Kd: 250 nM

B1: FLAG-tagged ppUL44 (natural protein)
chain: MDRKTRLSEPPTLALRLKPYKTAIQQLRSVIRALKENTTVTFLPTPSLILQTVRSHCVSKITFNSSCLYITDKSFQPKTINNSTPLLGNFMYLTSSKDLTKFYVQDISDLSAKISMCAPDFNMEFSSACVHGQDIVRESENSAVHVDLDFGVVADLLKWIGPHTRVKRNVKKAPCPTGTVQILVHAGPPAIKFILTNGSELEFTANNRVSFHGVKNMRINVQLKNFYQTLLNCAVTKLPCTLRIVTEHDTLLYVASRNGLFAVENFLTEEPFQRGDPFDKNYVGNSGKSRGGGGGGGSLSSLANAGGLHDDGPGLDNDLMNEPMGLGGLGGGGGGGGKKHDRGGGGGSGTRKMSSGGGGGDHDHGLSSKEKYEQHKITSYLTSKGGSGGGGGGGGGGLDRNSGNYFNDAKEESDSEDSVTFEFVPNTKKQKCG
notes: also called FLAG-UL44; pDESTnFLAG-UL44; source: HEK293T or HEK293A-derived cell lines, transiently transfected, in cells
[5]
  percent inhibition of the RLuc-UL54/YFP-UL44 BRET ratio: ~40%

## B2
[6]
  B50: 20
[7]
  B50: 11.5
ppUL44 UL44(2–433) I135A
  B50: 81.2

## B3
[8]
  BRET ratio: 0.36 ± 0.1
[9]
  B50: 19
[10]
  BRET ratio: 0.17

## B4
[9]
  B50: 25.5

## B5
[9]
  B50: 73.7
